Assay results taken from publication PMC7817833.

How the values were obtained:
[1] = target: 14-3-3γ (UniProt P61981); assay: co-immunoprecipitation, western blot; settings: reference: wild-type ENDOG; sites T128,S288
[2] = target: 14-3-3γ (UniProt P61981); assay: co-immunoprecipitation of Myc-ENDOG, western blot; settings: reference: Myc-ENDOG wild type; sites T128,S288

Substance: ENDOG (Endonuclease G) (from UniProt Q14249) T128A/S288A (AA)
- binding against the reference [1]: weaker

Substance: ENDOG (Endonuclease G) (from UniProt Q14249) Myc-ENDOG-AA (T128A/S288A)
- binding against the reference [2]: weaker
